Assay results published in patent publication US20240034757A1 (OXFORD UNIVERSITY INNOVATION, published 2024).
Residue numbers refer to the chain shown, from its start.

T1: CXCL8_HUMAN (human, UniProt P10145 28-99)
T1 sequence: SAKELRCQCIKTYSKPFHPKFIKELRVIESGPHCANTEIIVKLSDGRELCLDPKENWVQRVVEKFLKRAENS

T2: CXCL7_HUMAN (human, UniProt P02775 59-128)
T2 sequence: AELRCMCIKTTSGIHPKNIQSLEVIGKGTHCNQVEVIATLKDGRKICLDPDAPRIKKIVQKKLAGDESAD

T3: CXCL4_HUMAN (human, UniProt P02776 32-101)
T3 sequence: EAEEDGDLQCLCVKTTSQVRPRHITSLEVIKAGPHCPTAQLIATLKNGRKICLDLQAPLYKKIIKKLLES

T4: CXCL6_HUMAN (human, UniProt P80162 38-114)
T4 sequence: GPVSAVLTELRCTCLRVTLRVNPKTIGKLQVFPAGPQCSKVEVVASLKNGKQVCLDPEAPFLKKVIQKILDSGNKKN

T5: P1180_AMBTR (Amblyomma triste, UniProt A0A023G6B6 26-116)
T5 sequence: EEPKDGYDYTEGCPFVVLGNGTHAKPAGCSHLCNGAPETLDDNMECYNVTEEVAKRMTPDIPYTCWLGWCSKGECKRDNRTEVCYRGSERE

T6: P1183_AMBTR (Amblyomma triste, UniProt A0A023G9N9 26-115)
T6 sequence: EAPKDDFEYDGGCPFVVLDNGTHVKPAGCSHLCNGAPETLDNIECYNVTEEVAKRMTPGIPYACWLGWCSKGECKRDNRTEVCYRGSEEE

T7: P1181_AMBMA (Amblyomma maculatum, UniProt G3MIX6 26-115)
T7 sequence: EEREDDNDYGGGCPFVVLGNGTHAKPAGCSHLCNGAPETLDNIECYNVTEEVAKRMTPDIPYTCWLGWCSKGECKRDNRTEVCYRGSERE

T8: P985_AMBPA (Amblyomma parvum, UniProt A0A023FT45 25-132)
T8 sequence: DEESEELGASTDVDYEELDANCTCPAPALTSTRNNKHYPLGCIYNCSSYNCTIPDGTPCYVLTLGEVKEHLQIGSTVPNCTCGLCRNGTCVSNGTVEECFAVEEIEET

T9: P991_AMBCA (Amblyomma cajennense, UniProt A0A023FFD0 29-136)
T9 sequence: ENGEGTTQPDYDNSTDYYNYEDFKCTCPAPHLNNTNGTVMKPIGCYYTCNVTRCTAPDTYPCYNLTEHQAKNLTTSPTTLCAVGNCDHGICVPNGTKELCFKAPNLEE

T10: P974_AMBCA (Amblyomma cajennense, UniProt A0A023FDY8 22-118)
T10 sequence: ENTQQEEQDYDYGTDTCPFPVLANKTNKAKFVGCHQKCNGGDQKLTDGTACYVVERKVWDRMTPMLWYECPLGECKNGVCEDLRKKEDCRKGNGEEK

T11: P1182_AMBMA (Amblyomma maculatum, UniProt G3MJ83 27-115)
T11 sequence: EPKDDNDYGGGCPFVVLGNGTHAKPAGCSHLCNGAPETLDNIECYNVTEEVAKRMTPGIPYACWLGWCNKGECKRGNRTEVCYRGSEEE

T12: P1243_AMBAM (Amblyomma americanum, UniProt A0A0C9S461 26-123)
T12 sequence: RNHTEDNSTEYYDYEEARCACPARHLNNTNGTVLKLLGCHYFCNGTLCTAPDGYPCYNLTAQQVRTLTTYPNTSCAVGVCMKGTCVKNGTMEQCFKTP

T13: P467_RHIPU (Rhipicephalus pulchellus, UniProt L7M8Z8 22-127)
T13 sequence: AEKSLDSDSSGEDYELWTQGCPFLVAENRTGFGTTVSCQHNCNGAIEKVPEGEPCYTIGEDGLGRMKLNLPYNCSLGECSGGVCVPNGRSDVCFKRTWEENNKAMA

T14: P546_AMBCA (Amblyomma cajennense, UniProt A0A023FBW7 22-118)
T14 sequence: T10 sequence with Q8E, E69S, D88E

T15: P672_RHIPU (Rhipicephalus pulchellus, UniProt L7MC74 22-125)
T15 sequence: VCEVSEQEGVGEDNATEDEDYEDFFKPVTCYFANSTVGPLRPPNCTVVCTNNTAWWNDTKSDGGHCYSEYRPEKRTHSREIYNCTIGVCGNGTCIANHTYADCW

T16: P983_AMBCA (Amblyomma cajennense, UniProt A0A023FFB5 22-119)
T16 sequence: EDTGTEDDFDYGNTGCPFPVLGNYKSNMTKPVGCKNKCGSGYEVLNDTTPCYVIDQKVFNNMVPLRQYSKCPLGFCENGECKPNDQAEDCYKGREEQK

T17: CXCL9_HUMAN (human, UniProt Q07325 23-125)
T17 sequence: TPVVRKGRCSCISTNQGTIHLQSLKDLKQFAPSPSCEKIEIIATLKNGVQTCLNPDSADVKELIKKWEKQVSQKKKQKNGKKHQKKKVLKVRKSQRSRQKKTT

T18: CXCL10_HUMAN (human, UniProt P02778 22-98)
T18 sequence: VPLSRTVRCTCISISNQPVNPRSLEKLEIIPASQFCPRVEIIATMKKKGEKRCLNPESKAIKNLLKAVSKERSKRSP

T19: CXCL11_HUMAN (human, UniProt O14625 22-94)
T19 sequence: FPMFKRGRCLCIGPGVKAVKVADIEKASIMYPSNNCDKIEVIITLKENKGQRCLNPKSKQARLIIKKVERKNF

T20: CXCL14_HUMAN (human, UniProt O95715 35-111)
T20 sequence: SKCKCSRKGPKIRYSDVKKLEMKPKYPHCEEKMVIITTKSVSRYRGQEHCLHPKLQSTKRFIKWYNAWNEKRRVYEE

T21: CXCL13_HUMAN (human, UniProt O43927 23-109)
T21 sequence: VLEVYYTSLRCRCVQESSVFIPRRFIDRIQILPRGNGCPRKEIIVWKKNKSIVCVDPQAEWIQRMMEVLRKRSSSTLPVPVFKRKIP

T22: CXCL1_HUMAN (human, UniProt P09341 35-107)
T22 sequence: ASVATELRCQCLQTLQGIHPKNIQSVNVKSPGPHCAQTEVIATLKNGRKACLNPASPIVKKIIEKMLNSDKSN

B1: P1104_IXORI (other)
chain: ESKEASASQGPGKSFKVEFCETNCTENNGVWSGCTGDCICVSVGDSKEGRCMDLGDKVIDTPVAQG
B2: P1077_IXORI (other)
chain: GSKQLIGPQSSTNSIKAEFCDTNCTAGTNGIWNGCSGDCFCTHVGNSTEGRCMKITGFDEYPTSEAEE
B3: P1162_IXORI (other)
chain: LNDEELFTVDYCGTNCTQQPNGSWTTCPGNCSCYHEDGKTDGFCLSTEYTDFTQFPNLTSEEMDAATPRPE
B4: P1229_IXORI (other)
chain: DDEFFTVDYCGMNCTLQQDGSWTPCTQKNAECKCYHESGSSVGLCLSTAYTDFNQFGDPNNSDLDAATPRHPDASSR
B5: CCL11_HUMAN (ligand)
chain: not shown
B6: CCL3_HUMAN (ligand)
chain: SLAADTPTACCFSYTSRQIPQNFIADYFETSSQCSKPGVIFLTKRSRQVCADPSEEWVQKYVSDLELSA
B7: CCL4L1_HUMAN (ligand)
chain: APMGSDPPTACCFSYTARKLPRNFVVDYYETSSLCSQPAVVFQTKRGKQVCADPSESWVQEYVYDLELN
B8: CCL4_HUMAN (ligand)
chain: B7 chain with G47S
B9: CCL16_HUMAN (ligand)
chain: QPKVPEWVNTPSTCCLKYYEKVLPRRLVVGYRKALNCHLPAIIFVTKRNREVCTNPNDDWVQEYIKDPNLPLLPTRNLSTVKIITAKNGQPQLLNSQ
B10: CCL15_HUMAN (ligand)
chain: QFTNDAETELMMSKLPLENPVVLNSFHFAADCCTSYISQSIPCSLMKSYFETSSECSKPGVIFLTKKGRQVCAKPSGPGVQDCMKKLKPYSI

Target: T1, CXCL8_HUMAN
Test: BLI [Cont.]

Binder	binding result
B1	no binding (tested: 300 nM)
B2	no binding (tested: 300 nM)

Target: T2, CXCL7_HUMAN
Test: BLI [Cont.]

Binder	binding result
B1	no binding (tested: 300 nM)
B2	no binding (tested: 300 nM)

Target: T3, CXCL4_HUMAN
Test: BLI [Cont.]

Binder	binding result
B1	no binding (tested: 300 nM)
B2	no binding (tested: 300 nM)

Target: T4, CXCL6_HUMAN
Test: BLI [Cont.]

Binder	binding result
B3	no binding (tested: 300 nM)
B4	no binding (tested: 300 nM)

Target: T5, P1180_AMBTR
Test: BLI

Binder	Kd [nM]
B5	33
B6	1.1
B7	20
B8	66

Target: T6, P1183_AMBTR
Test: BLI

Binder	Kd [nM]
B5	8.5
B7	48
B8	78

Target: T7, P1181_AMBMA
Test: BLI

Binder	Kd [nM]
B5	20
B6	2.2
B7	35
B8	53

Target: T8, P985_AMBPA
Test: BLI

Binder	Kd [nM]
B5	8
B9	45
B6	8.9
B7	21
B8	46

Target: T9, P991_AMBCA
Test: BLI

Binder	Kd [nM]
B5	3.43
B10	159
B9	1.28
B6	1.08
B7	0.827
B8	5.82

Target: T10, P974_AMBCA
Test: BLI

Binder	Kd [nM]
B5	17
B6	7.97
B7	23.2
B8	30.2

Target: T11, P1182_AMBMA
Test: BLI

Binder	Kd [nM]
B5	28
B6	5.4
B7	92
B8	63

Target: T12, P1243_AMBAM
Test: BLI

Binder	Kd [nM]
B5	6.03
B10	9.61
B9	0.926
B6	5.3
B7	35.4
B8	15.3

Target: T13, P467_RHIPU
Test: BLI

Binder	Kd [nM]
B5	1.4
B9	14.1
B6	0.363
B7	4.72
B8	13.6

Target: T14, P546_AMBCA
Test: BLI

Binder	Kd [nM]
B5	8.7
B6	15
B7	8.9
B8	27

Target: T15, P672_RHIPU
Test: BLI

Binder	Kd [nM]
B10	32
B9	3.3
B6	2.6

Target: T16, P983_AMBCA
Test: BLI

Binder	Kd [nM]
B5	21
B6	3.5
B7	2.9
B8	8

Target: T17, CXCL9_HUMAN
Test: BLI

Binder	binding result
B1	no binding (tested: 300 nM)
B3	no binding (tested: 300 nM)
B4	no binding (tested: 300 nM)
B2	no binding (tested: 300 nM)

Target: T18, CXCL10_HUMAN
Test: BLI

Binder	binding result
B1	no binding (tested: 300 nM)
B3	no binding (tested: 300 nM)
B4	no binding (tested: 300 nM)
B2	no binding (tested: 300 nM)

Target: T19, CXCL11_HUMAN
Test: BLI

Binder	binding result
B1	no binding (tested: 300 nM)
B3	no binding (tested: 300 nM)

Target: T20, CXCL14_HUMAN
Test: BLI

Binder	binding result
B1	no binding (tested: 300 nM)
B3	no binding (tested: 300 nM)
B4	no binding (tested: 300 nM)
B2	no binding (tested: 300 nM)

Target: CXCL12_HUMAN (human, UniProt P48061 22-89)
Sequence (P48061 22-89 limits assumed): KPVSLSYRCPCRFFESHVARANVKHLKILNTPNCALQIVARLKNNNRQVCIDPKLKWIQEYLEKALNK
Test: BLI

Binder	Kd [nM]	binding result
B1	67.8	
B3		no binding (tested: 300 nM)
B4		no binding (tested: 300 nM)
B2		no binding (tested: 300 nM)

Target: T21, CXCL13_HUMAN
Test: BLI

Binder	Kd [nM]	binding result
B1	220	
B3		no binding (tested: 300 nM)
B4		no binding (tested: 300 nM)
B2		no binding (tested: 300 nM)

Target: T12, P1243_AMBAM
Test: BLI
Remark: another data set of the same source

Binder	Kd [nM]
B10	9.61
B9	0.925
B6	5.3
B7	35.4
B8	15.3

Target: T22, CXCL1_HUMAN
Test: yeast surface display FACS re-test; also: test concentration or dose not given here

Binder	% cells over threshold fluorescence [%]
B1	65
B3	72
B4	66
B2	50
